This note sets out measurements from article PMC3044691 (2011).

The assay deals with monomeric sCD4 (D1D2). In words: SPR. In general terms: SPR reads the build-up and loss of mass on a sensor chip optically.

B1: JR-FL gp120 (natural protein)
chain: not shown
As for B1, binding was put at a Kd of 12 nM.
